Results published in US20250043003A1 (ONCOC4, published 2025).
Numbering of substitutions follows the chain as printed.

T1: CTLA-4 (antigen of the affinity measurement of Table 1) (UniProt P16410 36-161, limits assumed)
T1 construct: Antigen form and method of the KD measurement are not described
T1 sequence (looked up): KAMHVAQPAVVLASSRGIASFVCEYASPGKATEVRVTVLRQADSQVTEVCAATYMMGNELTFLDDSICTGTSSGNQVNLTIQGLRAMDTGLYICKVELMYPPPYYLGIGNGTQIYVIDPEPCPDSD

T2: His-hCTLA-4 (polyhistidine-tagged CTLA-4) (human, UniProt P16410 36-161)
T2 construct: Coated on ELISA plates at 0.5 ug/ml; not shown: polyhistidine tag
T2 sequence (looked up): T1 sequence (looked up)

B1: AB139 (TremeIgG1) (antibody, V domains shown)
VH: QVQLVESGGGVVQPGRSLRLSCAASGFTFSSYGMHWVRQAPGKGLEWVAVIWYDGSNKYYADSVKGRFTISRDNSKNTLYLQMNSLRAEDTAVYYCARDPRGATLYYYYYGMDVWGQGTTVTVSS
VL: DIQMTQSPSSLSASVGDRVTITCRASQSINSYLDWYQQKPGKAPKLLIYAASSLQSGVPSRFSGSGSGTDFTLTISSLQPEDFATYYCQQYYSTPFTFGPGTKVEIKR
notes: Tremelimumab variable regions; also called mAb139; WT TremeIgG1
B2: AB159 (antibody, IgG1, V domains shown)
VH: B1 VH with Y59H, Y60H
VL: B1 VL
notes: TremeIgG1 mutant, IgG1; also called TremeIgG1M
B3: AB154 (antibody, V domains shown)
VH: B1 VH with S31H, Y32H, W36H
VL: B1 VL
notes: TremeIgG1 mutant, IgG1; also called mAb154; TremeIgG1M
B4: AB158 (antibody, IgG1, V domains shown)
VH: B1 VH with Y107H
VL: B1 VL
notes: as for B2
B5: AB157 (antibody, IgG1, V domains shown)
VH: B1 VH with Y107H, Y108H
VL: B1 VL
notes: as for B2
B6: AB156 (antibody, IgG1, V domains shown)
VH: B1 VH with Y106H, Y107H, Y108H
VL: B1 VL
notes: TremeIgG1 mutant, IgG1; also called Mab156; TremeIgG1M
B7: HL12 (antibody, from another filing, V domains shown)
VH: QVQLQESGPGLVKPSETLSLTCTVSGFSLTSYGLSWIRQPPGKGLEWIGYIWYDGNTNFHPSLKSRVTISKDTSKNQFSLKLSSVTAADTAVYYCAKTEGHYYGSNYGYYALDYWGQGTSVTVSS
VL: DIQMTQSPSSLSASVGDRVTITCRASENIYSNLAWYQQKQGKAPKLLLYAATNLQDGVPSRFSGSGSGTDYTLTISSLQPEDFATYFCQHLWGTPYTFGQGTKLEIK

Target: T1, CTLA-4 (antigen of the affinity …)
Assay: affinity, method not stated

| Kd [nM] | Binder |
| --- | --- |
| 0.147 | B1 |
| 0.387 | B2 |
| 1.23 | B3 |
| 0.542 | B4 |
| 2.32 | B5 |
| 4.46 | B6 |

Target: His-hCTLA-4 (polyhistidine-tagged CTLA-4) (human) (UniProt P16410)
Assay: ELISA, plate-coated His-hCTLA-4, antibody 1 ug/ml, pH 5.5 against pH 7.0

| binding at pH 5.5 relative to neutral pH (pH 7.0) [%] | Binder |
| --- | --- |
| < 50 | B7 |

Target: T2, His-hCTLA-4 (polyhistidine-tagged …)
Assay: as above
Protocol: FIG. 1A-B. pH-sensitivity of TremeIgG1 and its variants. His-hCTLA-4 (0.5 μg/ml) was coated in ELISA plates and different anti-CTLA-4 mAbs were added at 1 μg/ml in the buffer over a pH range of 4.5 to 7.0. pH indicated represents binding and washing conditions. Antibodies bound to CTLA-4 were measured using horse-radish perioxidase-labeled anti-human IgG antibodies.
In order to validate the approach, the activity of the Tremelimumab mutant antibodies was evaluated. To determine if the introduction of histidine to the CDR regions affects the pH sensitivity of the antibodies, the antibody binding to its antigen, polyhistidine-tagged CTLA-4, was measured over a pH range. As a control, HL12, which is known to bind CTLA-4 in a pH-dependent manner, with reduced binding at low/acidic pH, was used.

| binding at pH 5.5 relative to neutral pH (pH 7.0) [%] | Binder |
| --- | --- |
| ≥ 75 | B2 |
| ≥ 75 | B4 |
| ≤ 50 | B5 |
| ≤ 50 | B6 |
